Target: p27^Kip1–His6 (UniProt P46527)
UniProt P46527, sequence (P46527 whole entry): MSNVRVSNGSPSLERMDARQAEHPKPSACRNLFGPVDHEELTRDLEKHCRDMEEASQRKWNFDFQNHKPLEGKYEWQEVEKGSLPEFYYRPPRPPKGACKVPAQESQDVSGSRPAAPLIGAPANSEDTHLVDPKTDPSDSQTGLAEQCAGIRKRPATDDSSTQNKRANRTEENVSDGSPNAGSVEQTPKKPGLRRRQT

in vitro degradation of purified p27^Kip1–His6 (1 μg) by purified β1–His6 (2 μg) at 37°C, immunoblot, time course up to 90 min: 40%
Substance: β1–His6 (full-length β1, wild type) (from UniProt P28072 1-239) (enzyme)
